Measurements published in patent publication US20240218070A1 (MERUS N V, published 2024).

Target: T1, mouse FAP (moFAP) expressed on 293FF cells (mouse, UniProt P97321 1-761)
T1 sequence: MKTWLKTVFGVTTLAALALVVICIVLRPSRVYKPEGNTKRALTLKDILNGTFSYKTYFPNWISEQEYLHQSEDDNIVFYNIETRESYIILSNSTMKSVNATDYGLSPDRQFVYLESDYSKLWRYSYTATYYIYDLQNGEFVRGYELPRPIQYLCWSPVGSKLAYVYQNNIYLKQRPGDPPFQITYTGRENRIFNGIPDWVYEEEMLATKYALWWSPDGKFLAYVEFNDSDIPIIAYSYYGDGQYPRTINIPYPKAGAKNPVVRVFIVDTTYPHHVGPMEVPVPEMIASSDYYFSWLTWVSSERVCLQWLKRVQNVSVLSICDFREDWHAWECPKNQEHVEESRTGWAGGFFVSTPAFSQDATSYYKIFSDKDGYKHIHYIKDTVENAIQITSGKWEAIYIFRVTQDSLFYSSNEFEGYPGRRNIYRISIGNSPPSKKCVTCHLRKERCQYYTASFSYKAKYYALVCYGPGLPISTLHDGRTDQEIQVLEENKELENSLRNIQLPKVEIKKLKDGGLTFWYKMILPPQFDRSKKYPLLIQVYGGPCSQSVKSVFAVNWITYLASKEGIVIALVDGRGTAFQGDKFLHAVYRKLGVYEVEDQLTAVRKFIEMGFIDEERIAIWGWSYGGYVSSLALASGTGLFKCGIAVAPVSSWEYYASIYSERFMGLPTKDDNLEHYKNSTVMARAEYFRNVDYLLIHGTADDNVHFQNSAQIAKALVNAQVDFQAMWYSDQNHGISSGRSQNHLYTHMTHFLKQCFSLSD
Assay: FACS, 293FF cells transfected with moFAP, IgG at 2.5 ug/ml
Protocol: The binding of all test and control antibodies to the cells was tested at a single concentration of 2.5 ug/ml. Goat-anti-human IgG F(ab)2-PE (Invitrogen, H10104) was used as secondary antibody (1:100 in FACS buffer). Ab0625 was used at 10 ug/ml and its binding was detected using Ab0250 (Becton Dickinson, 550767) (1:100 in FACS buffer). The FACS buffer containing PBS (Gibco, cat. #10010-015), 0.5% BSA (Thermo Scientific, cat. #37525), and 2 mM EDTA (Invitrogen, cat. #15575-020) was kept ice cold throughout the assay.
The target cells were harvested, counted, and centrifuged for 5 min at 300 g at 4 °C. Cells were then resuspended in FACS buffer at a concentration of 1×10⁶ cells/ml and transferred (200,000 cells/well) to a U-bottom 96-well FACS plate (BD, cat. #353910). Cells were then centrifuged for 3 min at 300 g at 4° C. and supernatant was discarded. 50 μl of primary antibody solutions were added to the cells, mixed, and incubated for 30 min at 2-8° C. in the dark. Cells were washed by adding 150 μl FACS buffer and centrifuged for 3 min at 300 g at 4° C. Supernatant was discarded, and cells were washed again by adding 200 μl FACS buffer to the plate. Cells were then centrifuged for 3 min at 300 g at 4° C. and afterwards the supernatant was discarded. 50 μl of secondary antibody solutions were added to the cells, mixed, and incubated for 30 min at 2-8° C. in the dark. […]

B1: anti-human FAP bivalent monospecific IgG comprising heavy chain variable region SEQ ID NO: 69 (antibody, V domains shown)
VH: EVQLVETGGGLIQPGGSLRLSCAASGFTVSSNYMSWVRQAPGKGLEWVSVIYSGGSTYYADSVKGRFTISRDNSKNTLYLQMNSLRAEDTAVYYCARGPTDAYPYLDYLWGQGTLVTVSS
VL: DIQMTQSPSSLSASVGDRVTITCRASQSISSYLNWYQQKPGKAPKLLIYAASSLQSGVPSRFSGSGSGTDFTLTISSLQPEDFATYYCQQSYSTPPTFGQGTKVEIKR
notes: IgG1 format, common light chain VK1-39/JK1; also called human/mouse cross-reactive FAP IgG
binding result: binds
